Assay results published in EP4559472A1 (Universität Ulm, dated 2025).

Target: T1, Biotinylated C4d (UniProt P0C0L4 957-1336, limits assumed, biotinylated (thioester moiety; NHS-PEG4-Biotin Kit))
T1 construct: domain: C4d; also called C4d (biotinylated, on streptavidin sensor chip)
T1 sequence (looked up): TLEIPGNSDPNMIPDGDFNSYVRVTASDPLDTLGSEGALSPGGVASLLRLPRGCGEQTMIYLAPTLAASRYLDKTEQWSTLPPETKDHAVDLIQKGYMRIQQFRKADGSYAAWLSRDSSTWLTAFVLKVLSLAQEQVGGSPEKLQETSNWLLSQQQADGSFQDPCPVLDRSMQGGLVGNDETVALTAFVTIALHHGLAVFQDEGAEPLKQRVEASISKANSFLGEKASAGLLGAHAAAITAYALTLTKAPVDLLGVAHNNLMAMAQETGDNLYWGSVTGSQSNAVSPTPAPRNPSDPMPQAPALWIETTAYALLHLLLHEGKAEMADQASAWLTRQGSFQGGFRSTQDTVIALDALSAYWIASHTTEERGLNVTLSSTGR
Experiment: SPR, biotinylated C4d on streptavidin chip

B1: FH(15-18) (other, human, UniProt P08603 868-1104, looked up)
chain: IPCSQPPQIEHGTINSSRSSQESYAHGTKLSYTCEGGFRISEENETTCYMGKWSSPPQCEGLPCKSPPEISHGVVAHMSDSYQYGEEVTYKCFEGFGIDGPAIAKCLGEKWSHPPSCIKTDCLSLPSFENAIPMGEKKDVYKAGEQVTYTCATYYKMDGASNVTCINSRWTGRPTCRDTSCVNPPTVQNAYIVSRQMSKYPSGERVRYQCRSPYEMFGDEEVMCLNGNWTEPPQCKD
notes: domain: protein domains 15-18; Control protein; also called protein domains 15-18 of FH
- binding result: no binding
